# From paper PMC10991452, “Bioeconomic production of high-quality chitobiose from chitin food wastes using an in-house chitinase from Vibrio campbellii” (Bioresources and Bioprocessing, 2022)
# B1: VhChiA (Vibrio harveyi) (protein)
# chain: APTAPSIDMYGSNNLQFSKIELAMETTSGYNDMVKYHELAKIKVKFNQWSGTSGDTYNVYFDGVKVATGAITGSQTTASFEYGQGGLYQMEIEACDATGCSKSAPVEITIADTDGSHLKPLTMNVDPNNKSYNTDPSIVMGTYFVEWGIYGRDYTVDNMPVDNLTHILYGFIPICGPNESVKSVGGNSFNALQTACRGVNDYEVVIHDPWAAYQKSFPQAGHEYSTPIKGNYAMLMALKQRNPDLKIIPSIGGWTLSDPFYDFVDKKNRDTFVASVKKFLKTWKFYDGVDIDWEFPGGGGAAADKGDPVNDGPAYIALMRELRVMLDELEAETGRTYELTSAIGVGYDKIEDVDYADAVQYMDYIFAMTYDFYGGWNNVPGHQTALYCGSFMRPGQCDGGGVDENGEPYKGPAYTADNGIQLLLAQGVPANKLVLGTAMYGRGWEGVTPDTLTDPNDPMTGTATGKLKGSTAQGVWEDGVIDYKGIKSFMLGANNTGINGFEYGYDAQAEAPWVWNRSTGELITFDDHRSVLAKGNYAKSLGLAGLFSWEIDADNGDILNAMHEGMAGGVVTPPNR
# Substrate: CC(=O)N[C@H]1[C@H](Oc2ccc([N+](=O)[O-])cc2)O[C@H](CO)[C@@H](O[C@@H]2O[C@H](CO)[C@@H](O)[C@H](O)[C@H]2NC(C)=O)[C@@H]1O
# Assay: purified protein
# Format: biochemical, Vibrio harveyi
# Conditions: 0.1 M sodium acetate pH 5.5, 30 °C, 10 min, 0-500 µM substrate
protein,measurement,value
B1,Km,216 µM
